{"source": "patent US20090110692A1", "about": "(UNIVERSITY OF IOWA RESEARCH FOUNDATION, published 2009)", "binders": {"B1": {"name": "E:MD-2 K125A.F126A (monomeric complex of wild-type endotoxin with MD-2 mutant K125A.F126A) (ligand)", "chain": "QKQYWVCNSSDASISYTYCDKMQYPISINVNPCIELKRSKGLLHIFYIPRRDLKQLYFNLYITVNTMNLPKRKEVICRGSDDDYSFCRALKGETVNTTISFSFKGIAASKGKYKCVVEAISGSPEEMLFCLEFVILHQPNSN"}, "B2": {"name": "E:MD-2 (F126A) (monomeric complex of wild-type LOS with MD-2 mutant F126A) (ligand)", "chain": "B1 chain with A107K", "notes": "also called LOS:MD-2 (F126A); F126A MD-2 mutant"}, "B3": {"name": "LOS:sCD14 complex (monomeric complex of N. meningitidis lipooligosaccharide with soluble CD14, Mr ~60,000) (other)", "chain": "TTPEPCELDDEDFRCVCNFSEPQPDWSEAFQCVSAVEVEIHAGGLNLEPFLKRVDADADPRQYADTVKALRVRRLTVGAAQVPAQLLVGALRVLAYSRLKELTLEDLKITGTMPPLPLEATGLALSSLRLRNVSWATGRSWLAELQQWLKPGLKVLSIAQAHSPAFSCEQVRAFPALTSLDLSDNPGLGERGLMAALCPHKFPAIQNLALRNTGMETPTGVCAALAAAGVQPHSLDLSHNSLRATVNPSAPRCMWSSALNSLNLSFAGLEQVPKGLPAKLRVLDLSCNRLNRAPQPDELPEVDNLTLDGNPFLVPGTALPHEGSMNSGVVPACARSTLSVGVSGTLVL", "notes": "also called ^3H-LOS:sCD14; endotoxin:sCD14"}, "B4": {"name": "soluble recombinant wild-type MD-2-His6 (not complexed to endotoxin), in dialyzed conditioned insect cell medium (other, human)", "chain": "QKQYWVCNSSDASISYTYCDKMQYPISINVNPCIELKRSKGLLHIFYIPRRDLKQLYFNLYITVNTMNLPKRKEVICRGSDDDYSFCRALKGETVNTTISFSFKGIKFSKGKYKCVVEAISGSPEEMLFCLEFVILHQPNSNHHHHHH", "notes": "Used as unpurified conditioned medium (about 10 ng MD-2 per microliter after concentration); also called wt MD-2; rMD-2"}, "B5": {"name": "soluble recombinant C95Y mutant MD-2-His6, in dialyzed conditioned insect cell medium (other, human)", "chain": "B4 chain with C77Y", "notes": "also called C95Y MD-2"}}, "key": {"[1]": {"biological_target": "T1, TLR4 stably expressed on HEK293 cells (HEK/TLR4) (UniProt O00206 24-839, limits assumed)", "T1 sequence (O00206 24-839 limits assumed)": "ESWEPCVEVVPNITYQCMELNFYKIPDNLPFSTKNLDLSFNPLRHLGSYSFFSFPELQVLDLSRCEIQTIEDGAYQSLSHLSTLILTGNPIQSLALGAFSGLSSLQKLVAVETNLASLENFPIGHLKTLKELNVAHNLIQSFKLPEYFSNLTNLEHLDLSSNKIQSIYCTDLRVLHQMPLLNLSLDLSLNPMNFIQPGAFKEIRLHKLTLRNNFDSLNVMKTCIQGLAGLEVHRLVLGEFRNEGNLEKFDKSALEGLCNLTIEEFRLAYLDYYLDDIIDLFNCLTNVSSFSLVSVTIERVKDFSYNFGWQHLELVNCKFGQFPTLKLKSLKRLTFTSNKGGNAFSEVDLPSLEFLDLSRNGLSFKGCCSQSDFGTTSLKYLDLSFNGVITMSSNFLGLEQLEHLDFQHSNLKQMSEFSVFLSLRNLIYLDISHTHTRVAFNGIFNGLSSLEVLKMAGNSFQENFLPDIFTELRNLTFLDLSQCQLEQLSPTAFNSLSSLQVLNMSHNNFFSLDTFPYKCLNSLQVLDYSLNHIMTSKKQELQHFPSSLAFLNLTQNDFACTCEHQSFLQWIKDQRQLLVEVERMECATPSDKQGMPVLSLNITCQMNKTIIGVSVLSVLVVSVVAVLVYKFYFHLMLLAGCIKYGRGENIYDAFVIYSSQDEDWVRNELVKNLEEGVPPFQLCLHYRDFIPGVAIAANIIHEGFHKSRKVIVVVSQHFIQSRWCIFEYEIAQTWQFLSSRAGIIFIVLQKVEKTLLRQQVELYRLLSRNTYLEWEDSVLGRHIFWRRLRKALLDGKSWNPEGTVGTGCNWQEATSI", "assay": "cell-based or functional assay"}, "[2]": {"biological_target": "T1, TLR4 stably expressed on HEK293 cells …", "assay": "inferred from dose-dependent inhibition of HEK/TLR4 activation by the wt complex (IL-8)"}, "[3]": {"biological_target": "T1, TLR4 stably expressed on HEK293 cells …", "assay": "cell association of radiolabelled complex with HEK/TLR4 cells, overnight 37 C, liquid scintillation (FIG. 3)"}, "[4]": {"biological_target": "T1, TLR4 stably expressed on HEK293 cells …", "assay": "competition: excess free MD-2 against ^3H-LOS:MD-2 on HEK/TLR4 cells, liquid scintillation"}, "[5]": {"biological_target": "T1, TLR4 stably expressed on HEK293 cells …", "assay": "inferred from intermediate inhibition of HEK/TLR4 activation by LOS:MD-2 (IL-8)"}}, "note": "Where a chain is given by its changes, count along the chain named. In names and notes the source's numbering stands.", "data": [{"binder": "B1", "values": [{"measurement": "activation (IL-8) of HEK/TLR4 cells relative to wt E:MD-2", "setting": "[1]", "value": "~10", "unit": "%"}]}, {"binder": "B2", "values": [{"measurement": "binding result", "setting": "[2]", "value": "binds"}]}, {"binder": "B3", "values": [{"measurement": "binding result", "setting": "[3]", "value": "no binding (tested: 0.75 ng/ml ^3H-LOS)"}]}, {"binder": "B4", "values": [{"measurement": "binding result", "setting": "[4]", "value": "binds"}]}, {"binder": "B5", "values": [{"measurement": "binding result", "setting": "[5]", "value": "binds"}]}]}
